T1: human receptor tyrosine kinase AXL transcript variant 1 (human, UniProt P30530 26-894)
T1 construct: Overexpressed on RatI-AXL cl.2 and NIH3T3-AXL cl.7 fibroblasts (pLXSN-hAXL); endogenous on human cancer cell lines and HUVEC in the functional assays; also called hAXL; human AXL
T1 sequence: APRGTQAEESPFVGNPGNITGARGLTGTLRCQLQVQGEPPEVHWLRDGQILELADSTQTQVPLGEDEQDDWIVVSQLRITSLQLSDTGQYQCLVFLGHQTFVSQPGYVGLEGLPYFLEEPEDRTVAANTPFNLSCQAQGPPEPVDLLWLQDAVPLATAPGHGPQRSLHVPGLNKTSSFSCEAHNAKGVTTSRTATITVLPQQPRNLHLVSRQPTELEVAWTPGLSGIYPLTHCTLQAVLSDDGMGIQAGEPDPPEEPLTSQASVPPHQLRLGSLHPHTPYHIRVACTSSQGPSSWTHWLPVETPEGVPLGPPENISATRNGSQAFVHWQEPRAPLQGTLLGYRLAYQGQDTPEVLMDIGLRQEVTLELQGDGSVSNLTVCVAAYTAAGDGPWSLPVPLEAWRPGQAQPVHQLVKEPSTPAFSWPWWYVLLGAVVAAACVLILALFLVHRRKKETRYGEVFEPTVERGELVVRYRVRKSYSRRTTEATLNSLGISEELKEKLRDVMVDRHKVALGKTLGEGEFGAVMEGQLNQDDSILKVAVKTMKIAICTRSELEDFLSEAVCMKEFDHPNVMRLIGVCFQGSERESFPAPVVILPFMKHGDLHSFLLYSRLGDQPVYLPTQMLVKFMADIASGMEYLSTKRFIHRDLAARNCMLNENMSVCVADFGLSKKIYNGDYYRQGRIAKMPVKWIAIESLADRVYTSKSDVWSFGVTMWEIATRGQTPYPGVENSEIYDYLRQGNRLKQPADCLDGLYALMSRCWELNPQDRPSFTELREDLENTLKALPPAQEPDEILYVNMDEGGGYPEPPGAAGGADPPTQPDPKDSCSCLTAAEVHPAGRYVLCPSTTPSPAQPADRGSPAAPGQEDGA

T2: human Sky (human, UniProt Q06418 41-890)
T2 construct: whole, on cells; Transiently expressed on HEK293T cells (pcDNA3-hSky); also called hSky
T2 sequence (looked up): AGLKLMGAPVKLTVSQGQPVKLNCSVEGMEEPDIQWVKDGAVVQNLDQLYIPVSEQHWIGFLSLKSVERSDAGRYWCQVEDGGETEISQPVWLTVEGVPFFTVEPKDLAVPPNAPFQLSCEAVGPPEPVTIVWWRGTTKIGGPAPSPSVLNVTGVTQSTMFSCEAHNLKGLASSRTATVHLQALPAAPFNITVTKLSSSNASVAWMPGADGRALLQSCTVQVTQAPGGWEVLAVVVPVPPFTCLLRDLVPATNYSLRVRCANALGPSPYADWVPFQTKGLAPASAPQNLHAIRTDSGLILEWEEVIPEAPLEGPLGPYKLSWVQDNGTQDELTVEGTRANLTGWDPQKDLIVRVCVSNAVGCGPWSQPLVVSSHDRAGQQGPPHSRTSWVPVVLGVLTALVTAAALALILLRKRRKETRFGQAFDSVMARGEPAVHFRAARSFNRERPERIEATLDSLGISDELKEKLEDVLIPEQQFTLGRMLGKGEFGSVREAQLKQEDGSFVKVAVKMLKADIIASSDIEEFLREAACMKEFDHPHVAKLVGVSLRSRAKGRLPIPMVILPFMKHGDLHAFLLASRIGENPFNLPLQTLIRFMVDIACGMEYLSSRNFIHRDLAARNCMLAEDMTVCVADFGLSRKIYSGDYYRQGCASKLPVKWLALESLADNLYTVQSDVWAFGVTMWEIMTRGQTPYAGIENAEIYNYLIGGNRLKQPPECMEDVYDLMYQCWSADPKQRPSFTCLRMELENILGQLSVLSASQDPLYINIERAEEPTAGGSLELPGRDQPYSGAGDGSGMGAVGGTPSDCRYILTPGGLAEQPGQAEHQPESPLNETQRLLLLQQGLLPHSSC


Key:
[1] = target: T1, human receptor tyrosine kinase AXL …; test: flow cytometry, NIH3T3-hAXL cells
[2] = target: T2, human Sky; test: flow cytometry, transiently transfected HEK293T cells
Procedure: FIG. 3. Flow cytometry analysis of cross-reactivity of rat-anti AXL antibodies with mouse and cynomolgus monkey AXL as well as human Mer and Sky. HEK293T fibroblasts were transiently transfected with pcDNA3, pcDNA3-hAXL, pcDNA3 mAXL, pcDNA3-cyAXL, pcDNA3-hMer, or pcDNA3-hSky. […] See text for details.
For FACS analysis, 2×10⁵ cells were harvested with 10 mM EDTA in PBS, washed once with FACS buffer (PBS, 3% FCS, 0.4% azide) and seeded on a 96 well round bottom plate. […] After incubation on ice for 1 h, cells were washed twice with chilled FACS buffer and resuspended with PE-conjugated donkey anti-rat (Jackson) secondary antibody diluted 1:50 in FACS buffer (100 μl/well) or PE-conjugated donkey anti-mouse secondary antibody for control. Protected from light, cells were incubated on ice for 30 min, washed twice with FACS buffer and analyzed using an Epics XL-MCL flow cytometer (Beckman Coulter).

FACS shift [1]	binding result [2]	Binder
36.2	no binding (tested: 10 µg/ml)	I 11B7 (antibody, V domains shown, rat hybridoma antibody, antagonistic) VH: EVQLQESGPGLVKPSQSLSLTCSVTGYSITSNYWGWIRKFPGDKMEWMGYITYSGSTSYNPSLKSRISITRDTSKNQFFLQLNSVTSEDTATYYCAITTFYYWGQGVMVTVSS VL: DIQMTQAPSSLPASLGDRVTITCRASQDIGNYLRWFQQKPGKSPRLMISGATNLAAGVPSRFSGSRSGSDYSLTISSLESEDMADYYCLQSKESPWTFGGGTKLELK
37.5	no binding (tested: 10 µg/ml)	I 10D12 (antibody, V domains shown, rat hybridoma antibody, antagonistic; subclass G1) VH: EVQLQESGPGLVKPSQSLSLTCSVTGYSITSNYWGWIRKFPGNKMEWMGYITNSGGTAYNPSLKSRISITRDTSKNQFFLQLNSVIPEDSATYFCSRTPWDWGQGVMVTVSS VL: DIQMTQAPSSLPASLGDRVTIACRASQDIGNYLRWFQQKPGKSPRLMISGATNLAAGVPSRFSGSRSGSDYSRTISSLESEDMADYYCLQSKESPWTFGGGTKLELK
8.9	no binding (tested: 10 µg/ml)	III 11D5 (antibody, rat IgG2a, V domains shown, rat hybridoma antibody, antagonistic) VH: EVQLQESGPGLVKPSQSLSLTCSVTGYSITSNYWGWIRKFPGNKMEWIGHITNSGNTTYNPSLKSRISISRDTSRNQFFLQLNSVTTEDTATYYCAKGAFDYWGQGVMVTVSS VL: DIQMTQSPSSMSTSLGDRVTITCRASQDIGNYLSWFQQKVGKSPRRMIYGAIKLAVGVPSRFSGSRSGSDYSLTISSLESEDMAIYYCLQYIQFPLTFGSGTKLELK

Reference: US20100330095A1 (U3 PHARMA, published 2010)
